# Test results published in patent US20210315969A1, “GLYCOPROTEINS HAVING LIPID MOBILIZING PROPERTIES AND THERAPEUTIC USES THEREOF” (Aston University, priority 2008, published 2021).
# B1: Zinc-α2-glycoprotein (protein, listed as Homo sapiens)
# chain: QENQDGRYSLTYIYTGLSKHVEDVPAFQALGSLNDLQFFRYNSKDRKSQPMGLWRQVEGMEDWKEDSQLQKAREDMETLKDIVEYYNDSNGSHVLQGRFGCEIENNRSSGAFWKYYYDGKDYIEFNKEIPAWVPFDPAAQITKQKWEAEPVYVQRAKAYLEEECPATLRKYLKYSKNILDRQDPPSVVVTSHQAPGEKKKLKCLAYDFYPGKIDVHWTRAGQVQEPELRGDVLHNGNGTYQSWVVVAVPPQDTAPYSCHVQHSSLAQPLVVPWEAS
# notes: recombinant human Zinc-α2-glycoprotein, lipid mobilizing factor, expressed in HEK293F cells
# Assays:
# [1] = tested on: adipocytes and gastrocnemius muscle; assay: Glucose uptake into adipocytes and gastrocnemius muscle of ob/ob mice treated with ZAG; type: in vivo; details: presence of low (1 nM) insulin
# Description: Glucose (intake into Atlipocpyes Isolated adipocytes (5×10^4) were washed twice in 1 ml Krebs-Ringer bicarbonate buffer, pH 7.2 (KRBS) and further incubated for 10 min at room temperature in 0.5 ml KRBS containing 18.5MBq […]-^14CI deoxy-D-glucose and non-radioactive 2-deoxy-D-glucose to a final concentration of 0.1 mM. Uptake was terminated by the addition of 1 ml ice-cold glucose-free KRBS, and the cells were washed three times with 1 ml KRBS, lysed by addition of 0.5 ml 1 M NaOH and left for at least 1 h at room temperature before the radioactivity was determined by liquid scintillation counting.
# Glucose Uptake into Gostrocneinius Muscle—Gastrocnemius muscles were incubated in Krebs-Henseleit bicarbonate butler for 45 min at 37° C. and then incubated for a further 10 min in 5 ml Krebs-Henseleit butler containing 185M Bq 2-[1-^14C]deoxy-D-glucose and non-radioactive 2-deoxy-D-glucose to a final concentration of 0.1 mM. The muscles were then removed and washed in 0.9% NaCl for 5 min followed by dissolution in 0.5 ml 1M NaOH and the radioactivity was determined by liquid scintillation counting.
# [2] = tested on: adipocytes; assay: Expression of phospho HSL / HSL in adipocytes incubated 3 h with ZAG or isoprenaline; type: cell-based, mice; details: 3 h; isoprenaline 10 μM or ZAG 0.46 μM
# [3] = 21 day study of ZAG in ob/ob mice; type: in vivo
# Description: FIG. 7A is a graphical diagram showing weight loss of the ob/ob mice during the 21 day study. ZAG was injected at days 1, 4, 5, 8, 13, 16, 18, and 19; PBS was injected at the same time points.
# (§1) Animals—Mice—Homozygous obese (ob/ob) mice from the colony maintained at Aston University were used in the present study. The origin and characteristics of Aston ob/ob mice have been previously described. Male mice (20-21 weeks old, weight 90-100 g) were grouped into three per cage in an air conditioned room at 22 ±2° C. with a 12 h-light:12 h-dark cycle and fed a rat and mouse breeding diet (Special Diet Services, Witham, UK) and tap water ad libitum. They were administered ZAG (35 μg) in PBS (100 μl) b.d. by i.v. administration and body weight and food and water intake were monitored daily. Control mice received PBS alone. Body temperature was measured daily by the use of a rectal thermometer (RS Components, Northants, UK). All animal experiments were carried out in accordance with the U.K. Animals (Scientific Procedures) Act 1986.
# (§2) Serum Metabolite Determinations—Non-esterified fatty acids (NEFA) were determined using a Wako-ASC-ACOD kit (Wako Chemical GmbH, Neuss, Germany). Triglycerides were determined using a Triglyceride kit (Sigma Chemical Co., Poole, United Kingdom) and 3-hydroxybutyrate by a quantitative enzymatic determination kit (Sigma). Glucose was measured using a glucose analyser (Beckman, Irvine, Calif.) and glycerol was determined enzymatically using the method of Wieland as described in “Methods of Enzymatic Analysis” (Ed, Bergmeyer, H. U.) Vol. 3, pp1404-1409, published by Academic Press, London (1974).
# [4] = ZAG i.v. administration to ob/ob mice, 5 day study (body weight, temperature, plasma metabolites); type: in vivo
# Description: as §1, §2
# [5] = tested on: protein expression in WAT, BAT and gastrocnemius muscle; assay: Western blot of WAT, BAT and gastrocnemius muscle of rats treated with ZAG; type: in vivo, Wistar rats
# Description: Samples of cytosolic protein (10 μg) were resolved on 12% sodium dodecylsuiphate polyacrylamide gel electrophoresis and the proteins were then transferred onto 0.45 μm nitrocellulose menibranes, which had been blocked with 5% N,Tarvel in ids-buffered saline, pH 7.5, at 4° C. overnight, and following four 15 min washes with 0.1% Tween in PBS, incubation with the secondary antibody was performed for 1 h at room temperature. Development was by ECL.
# [6] = ob/ob mice treated for 120 h, wet weight
molecule,measurement,setting,value
B1,glucose uptake into epididymal and visceral adipocytes,[1],also increased glucose uptake
same,expression of phospho HSL in adipocytes,[2],increased expression of phospho HISL
same,urinary glucose excretion,[3]; first 5 days and 21 day study,progressive decrease
same,peak body temperature,[3]; just before maximum weight loss,38.1 °C
same,Start weight,"[3]; ob/ob mice, 21 day study, before treatment, in g",93.1 ± 1.9
same,BAT,"[3]; ob/ob mice, Day 21 (Table 3)",0.41 ± 0.35 g
same,Gastrocnemius,"[3]; ob/ob mice, Day 21 (Table 3)",0.39 ± 0.12 g
same,Soleus,"[3]; ob/ob mice, Day 21 (Table 3)",0.18 ± 0.07 g
same,BAT,[4]; ob/ob mice treated for 120 h,0.73 ± 0.12 p < 0.01 g
same,NEFA (plasma),[4]; ob/ob mice treated for 120 h,0.73 ± 0.05 p < 0.001 mEq/L
same,TG (plasma),[4]; ob/ob mice treated for 120 h,0.9 ± 0.1 p < 0.05 mmol/L
same,Gastrocncinius,[4]; [6],1.12 ± 0.14 p < 0.01 g
same,Soleus,[4]; [6],0.80 ± 0.09 p < 0.01 g
same,rise of body temperature,"[4]; ob/ob mice, after 4 days of ZAG administration",0.4 °C
same,weight difference between the groups,"[4]; ob/ob mice, after 5 days, ZAG vs PBS",3.5 g
same,"expression of glucose transporter 4 (GLUT4) in BAT, WAT and skeletal muscle",[5]; 10 days,increased expression
same,expression of phosphorylated forms of PKR and eIF2 α-subunit in gastrocnemius muscle,[5]; total amount did not change,significant reduction
